This note sets out measurements from patent US20260176373A1 (BRIGHT BIOLOGICS, published 2026).

The target in assay [1] is human TROP2 (Trophoblast cell-surface antigen 2) (human) (UniProt P09758). Briefly: flow cytometry whole cell binding, CHO-h-TROP2 stable cells.
The target is the same in assay [2]. Briefly: flow cytometry whole cell binding, Colo205 cells (endogenous TROP2).
Assay [3] has the same target. The experiment in a line: flow cytometry whole cell binding, h-TROP2 stably transfected CHO cells.
The target is the same in assay [4]. The experiment in a line: flow cytometry whole cell binding, SKBR3 cells.
Assay [5] shares this target. The experiment in a line: cell-based or functional assay.
Assay [6] shares this target. The experiment in a line: flow cytometry, SKOV3 cells.
Assay [7] has the same target. The experiment in a line: flow cytometry, HCC202 cells, antibody at 100 nM.
Assay [8] has the same target. Briefly: flow cytometry whole cell binding, CHO-h-TROP2 stable cells. The source holds these as a separate data set.
Assay [9] shares this target. Briefly: flow cytometry whole cell binding, NCI-H441 cells.
Assay [10] has the same target. Briefly: flow cytometry, SKBR3 cells, antibody at 100 nM.
Assay [11] has the same target. Briefly: flow cytometry, OE-19 cells.
Assay [12] shares this target. Briefly: flow cytometry whole cell binding, HCC202 cells.
Assay [13] shares this target. Briefly: flow cytometry whole cell binding, NCI-H1975 cells (endogenous TROP2).
Assay [14] shares this target. Briefly: flow cytometry, AU-565 cells, Immu-132 at 100 nM.
The target is the same in assay [15]. The experiment in a line: flow cytometry, NCI-H441 cells, Immu-132 at 100 nM.
In assay [16] the target is T1, human TROP2 (Trophoblast cell-surface antigen 2) (human, UniProt P09758 27-323).
T1 chain: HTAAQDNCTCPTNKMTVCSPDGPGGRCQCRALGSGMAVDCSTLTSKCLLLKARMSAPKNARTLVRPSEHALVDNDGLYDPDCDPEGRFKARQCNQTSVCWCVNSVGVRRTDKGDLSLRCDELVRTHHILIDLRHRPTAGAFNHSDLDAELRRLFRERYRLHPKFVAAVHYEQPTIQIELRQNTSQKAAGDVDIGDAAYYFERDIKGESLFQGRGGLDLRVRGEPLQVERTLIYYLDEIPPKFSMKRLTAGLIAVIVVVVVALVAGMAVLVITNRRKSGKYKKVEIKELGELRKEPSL
The experiment in a line: flow cytometry whole cell binding, SKBR3.

The target in assay [17] is T2, mouse TROP2 (mouse, UniProt Q8BGV3 25-317).
T2 construct: whole, on cells; also called m-TROP2
T2 sequence (looked up): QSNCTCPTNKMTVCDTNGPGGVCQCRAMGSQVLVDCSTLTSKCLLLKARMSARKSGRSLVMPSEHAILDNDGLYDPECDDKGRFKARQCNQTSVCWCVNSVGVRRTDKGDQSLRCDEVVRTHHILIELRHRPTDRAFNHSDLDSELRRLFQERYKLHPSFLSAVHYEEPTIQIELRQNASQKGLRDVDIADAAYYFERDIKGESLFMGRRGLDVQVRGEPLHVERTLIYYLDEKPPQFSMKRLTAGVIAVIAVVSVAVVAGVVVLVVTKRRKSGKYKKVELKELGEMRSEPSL
The experiment in a line: flow cytometry whole cell binding, m-TROP2 stably transfected 293T cells.

For assay [18], the target named is T3, human TROP2 (Trophoblast cell-surface antigen 2) (human, UniProt P09758 27-323).
T3 construct: whole, on cells; also called TACSTD2; h-TROP2
T3 sequence (looked up): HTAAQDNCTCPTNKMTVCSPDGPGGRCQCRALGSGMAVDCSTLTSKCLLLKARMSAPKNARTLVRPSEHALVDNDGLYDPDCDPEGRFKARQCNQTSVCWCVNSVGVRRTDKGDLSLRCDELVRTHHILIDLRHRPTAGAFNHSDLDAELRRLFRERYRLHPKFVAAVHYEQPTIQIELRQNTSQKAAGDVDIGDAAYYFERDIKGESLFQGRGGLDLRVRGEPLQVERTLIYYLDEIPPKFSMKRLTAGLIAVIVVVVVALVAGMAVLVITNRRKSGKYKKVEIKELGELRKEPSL
Briefly: flow cytometry whole cell binding, h-TROP2 stably transfected CHO cells. The protocol: Binding of bivalent anti-TROP2 VHH-Fc clones to human TROP2 in human TROP2 stably transfected CHO cells (CHO-h-TROP2 stable cells) were determined by flow cytometry whole cell binding (WCB) assays. Briefly, antibodies were incubated at different concentrations with CHO-h-TROP2 stable cells (0.2×10⁶/ml) in 96-well plates (100 μl/well) in FACS buffer for 30 min. After washing, Alexa Fluor 488 conjugated anti-human IgG Fc secondary antibody was added, and incubated for 30 min. After washing, MFI was measured using CytoFlex by gating live cell population with FITC channel. EC50 of binding was calculated using GraphPad Prism7.0.

In assay [19] the target is T4, human HER2 (human epidermal growth factor receptor 2) (human, UniProt P04626 23-1255).
T4 construct: whole, on cells; also called ERBB2; h-HER2
Briefly: flow cytometry whole cell binding, CHO-h-HER2 stable cells. The protocol:
(§1) Binding of bivalent anti-HER2 VHH-Fc clones to human HER2 stably transfected CHO cells (CHO-h-HER2 stable cells) was determined by flow cytometry whole cell binding (WCB) assays. Briefly, antibodies were incubated at different concentrations with CHO-h-HER2 stable cells (0.2×10⁶/ml) in 100 μl/well in 96-well plates in FACS buffer (PBS with 1.0% FBS) for 30 min. After washing, Alexa Fluor 488 conjugated anti-human IgG Fc secondary antibody (Alexa Fluor® 488 AffiniPure Goat Anti-Human IgG, Fcγ fragment specific, Jackson labs, 1:750 dilution) was added, and incubated for 30 min. After washing, Median Fluorescence Intensity (MFI) was measured using CytoFlex (Beckman Coulter) by gating live cell population with FITC channel. Whole cell binding of VHH-Fc clones to endogenously expressed HER2 in human cancer cells was also determined using N87 (Stomach cancer cell line) and SKBR3 (Breast cancer cell line) cells, both of which are cancer cells with high HER2 expressions.

Assay [20] concerns the target T4, human HER2 (human epidermal growth …). The experiment in a line: flow cytometry whole cell binding, N87 cells (endogenous HER2). The protocol:
as §1

For assay [21], the target named is T5, human HER2-Domain IV-his protein (human, UniProt P04626 489-630).
T5 construct: also called HER2 domain IV fragment (Pro489-Cys630); not shown: his tag
Briefly: ELISA, plate coated with human HER2-Domain IV-his. The protocol:
(§2) X axis is values of antibody concentration in nanomolar. Y axis is values of OD at 450 nm.
(§3) Binding of anti-HER2 VHH-Fc clones to different domains of human HER2 ECD was determined by ELISA binding assays using his-tagged HER2 domain fragments. Human HER2 domain IV fragment (Pro489-Cys630) was purchased from Sinobiological, domain II+III+IV fragment (Ser196-Cys630) & domain II fragment (Ser196-Asn319) were made.

Assay [22] concerns the target T4, human HER2 (human epidermal growth …). Briefly: cell-based or functional assay.
Assay [23] deals with T6, human HER2-Domain II-his protein (human, UniProt P04626 196-319).
T6 construct: also called HER2 domain II fragment (Ser196-Asn319); not shown: his tag
Briefly: ELISA, plate coated with human HER2-Domain II-his. The protocol:
as §2, §3

Assay [24] addresses T4, human HER2 (human epidermal growth …). The experiment in a line: cell-based or functional assay. This is another data set of the same source.
Assay [25] shares this target. Briefly: flow cytometry whole cell binding, HCC202 cells.
The target is the same in assay [26]. The experiment in a line: flow cytometry whole cell binding, SKBR3 cells.
The target is the same in assay [27]. Briefly: flow cytometry whole cell binding, CHO-h-HER2 stable cells. This is another data set of the same source.
For assay [28] the target is unchanged. Briefly: cell-based or functional assay. This is another data set of the same source.
Assay [29] concerns the target T3, human TROP2 (Trophoblast cell-surface …). The experiment in a line: flow cytometry whole cell binding, HCC202 cells.
Assay [30] has the same target. The experiment in a line: flow cytometry whole cell binding, SKBR3 cells.
The target is the same in assay [31]. Briefly: flow cytometry whole cell binding, NCI-H441 cells.
Assay [32] shares this target. The experiment in a line: cell-based or functional assay.
For assay [33] the target is unchanged. Briefly: flow cytometry whole cell binding, CHO-h-TROP2 stable cells.

B1: Immu-132 (antibody, INN chains, looked up, V domains shown)
VH: QVQLQQSGSELKKPGASVKVSCKASGYTFTNYGMNWVKQAPGQGLKWMGWINTYTGEPTYTDDFKGRFAFSLDTSVSTAYLQISSLKADDTAVYFCARGGFGSSYWYFDVWGQGSLVTVSS
VL: DIQLTQSPSSLSASVGDRVSITCKASQDVSIAVAWYQQKPGKAPKLLIYSASYRYTGVPDRFSGSGSGTDFTLTISSLQPEDFAVYYCQQHYITPLTFGAGTKVEIKR
modifications: unconjugated
Take B1: the EC50 in assay [1] was found to be 1.16 nM; in [2] it was 1.15 nM; in [3] it was 2.2 nM; in [4] it was 128 nM; in assay [8] it was 0.84 nM; in [9] it was 1.74 nM. For the same molecule, the results for the EC50 in [12] and in [13] were 4.02 nM and 3.61 nM, respectively. Besides, the IC50, nM, Killing of HCC202 cells by 2nd Ab-MMAE in [5] amounted to 0.19 nM. In assay [5], the IC50, nM, Killing of NCI-H441 cells by 2nd Ab-MMAE is 0.13 nM. The same molecule had an IC50, nM, Killing of SKBR3 cells by 2nd Ab-MMAE in [5] of 0.452 nM. For the same molecule, the MFI in [6] worked out at 50000 MFI; in assay [7], 200000 MFI; in assay [10], 90000 MFI; in [11], 30000 MFI; in assay [14], 90000 MFI; in [15] it was 200000 MFI.

B2: anti-TROP2 VHH-Fc clone Alpaca 3H9 (antibody, human IgG1, V domains shown)
VH: LVQLVESGGGLVQAGGSQRLSCAVSGRAFAYYAMGWFRQAPGKEREFVAAIAGSGDSTYYADSVKGRFTISRDYAKNTNYLQMNSLKPEDTAVYYCAAAGGTFYSGTAVATRSSQYDYWGQGTQVTVSS
notes: domain: hinge region and constant domains (CH2 and CH3); bivalent VHH-Fc, human IgG1 Fc; also called 3H9-Fc
For the molecule B2, the EC50 is 1.76 nM in assay [16], 760 nM in assay [17] and 1.46 nM in [18].

B3: anti-HER2 VHH-Fc clone 11D5 (bivalent VHH-Fc of Example 2) (antibody, V domains shown)
VH: QVQLVESGGGVVQPGRSLRLSCAASGSTFSSLAMHWVRQAPGKERELVAAISYSGGYTYYADSVKGRFTISRDNSKNTLYLQMNSLRAEDTAVYYCAASSIFIGAYDYWGQGTLVTVSS
notes: not shown: human IgG1 Fc region: hinge region and constant domains CH2 and CH3
With B3, the EC50 in assay [19] was found to be 2.09 nM; in [20], 3.14 nM. The binding result in [21] and in assay [23] was “no binding” in each case. Moreover, the “IC50 (nM) in AU-565 cells, anti-proliferation” value in assay [22] was 0.84 nM. The “IC50 (nM) in AU-565 cells, killing in the presence of PBMCs” value in [24] is 0.38 nM. Besides, in assay [24], the “IC50 (nM) in SKBR3 cells, killing in the presence of PBMCs” value is 0.29 nM.

B4: 11D5_Fc (antibody, V domains shown)
VH: QVQLVESGGGVVQPGRSLRLSCAASGSTFSSLAMHWVRQAPGKERELVAAISYSGGYTYYADSVKGRFTISRDNSKNTLYLQMNSLRAEDTAVYYCAASSIFIGAYDYWGQGTLVTVSS
notes: monospecific bivalent VHH-Fc with C220S mutation in the hinge region; also called monospecific anti-HER2 (11D5)
In the case of B4, the figures for the EC50 in assay [25], in [26] and in [27] were 3.25 nM, 2.59 nM and 0.684 nM, respectively. Besides, the “IC50, nM, Killing of HCC202 cells by 2nd Ab-MMAE” value in assay [28] turned out to be 0.18 nM. Moreover, the “IC50, nM, Killing of SKBR3 cells by 2nd Ab-MMAE” value in assay [28] stood at 0.134 nM.

B5: 1H11-hv8_Fc (antibody, V domains shown)
VH: EVQLVESGGGLVQPGGSLRLSCAASGGTFSRYIMGWFRQAPGKEREFVSTISGSGGSTYYADSVKGRFTISRDNSKNTLYLQMNSLRAEDTAVYYCASTFYSTTYVAQRDARDYAYWGQGTQVTVSS
notes: monospecific bivalent VHH-Fc with C220S mutation in the hinge region; also called monospecific anti-TROP2 (1H11-hv8)
As to B5, in assay [29], a half-maximal effect (EC50) was put at 3.5 nM. In addition, the EC50 in assay [30] was 141 nM. Further, the EC50 in assay [31] was determined as 1.6 nM. Further, in assay [32], the “IC50, nM, Killing of HCC202 cells by 2nd Ab-MMAE” value is 0.2 nM; the “IC50, nM, Killing of NCI-H441 cells by 2nd Ab-MMAE” value was 0.15 nM; the “IC50, nM, Killing of SKBR3 cells by 2nd Ab-MMAE” value worked out at 0.48 nM.

B6: 1H11-hv10_Fc (antibody, V domains shown)
VH: EVQLVESGGGLVQPGGSLRLSCAASGGTFSRYIMSWFRQAPGKEREFVSAISGSGGSTYYADSVKGRFTISRDNSKNTLYLQMNSLRAEDTAVYYCASTFYSTTYVAQRDARDYAYWGQGTQVTVSS
notes: monospecific bivalent VHH-Fc with C220S mutation in the hinge region; also called monospecific anti-TROP2 (1H11-hv10)
In assay [33], B6 came in with an EC50 of 2.38 nM.
